Measured values taken from patent US20070243589A1 (Pfizer, published 2007).
Changes are numbered by the printed parent chain.

T1: human IL-22 (human, UniProt Q9GZX6 34-179)
T1 sequence: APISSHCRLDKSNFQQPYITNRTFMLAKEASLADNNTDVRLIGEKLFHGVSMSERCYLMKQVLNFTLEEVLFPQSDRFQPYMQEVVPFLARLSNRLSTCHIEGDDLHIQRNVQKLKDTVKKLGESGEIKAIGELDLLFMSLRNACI

T2: IL-26 (human, UniProt Q9NPH9)
T2 construct: coated on the ELISA plate at 1 µg/ml; also called human IL-26
T2 sequence (cytokine, looked up): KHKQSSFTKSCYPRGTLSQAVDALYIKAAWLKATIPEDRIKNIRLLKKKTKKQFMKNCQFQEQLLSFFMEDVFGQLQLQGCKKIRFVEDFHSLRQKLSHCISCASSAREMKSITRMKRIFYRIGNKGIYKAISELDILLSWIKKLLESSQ

B1: 166B06 IgG (non-germlined) (antibody, V domains shown)
VH: EVQLVQSGAEVKKPGASVKVSCQASGYTFSDYYIHWVRQTPGQGFEWMGWVNPDTGGTRYAQKFQGWVTMTRDMSNTTAYMELPRLRDDDTAVYYCARDLTGFDPFDIWGQGTLVTVSS
VL: QSVLTQPPSVSVAPGKTATITCGGNNFRNKRVHWYQQRPGQAPVLVIYYDSDRPSGIPERFSGSRSGNTATLTISRVEAGDEADFYCQVWDLFNDNGVFGGGTKLTVLG
B2: 166G05 IgG (non-germlined) (antibody, V domains shown)
VH: B1 VH
VL: B1 VL with L92F, F93L, N94T, N96S, V98S
B3: 062A09 IgG (non-germlined) (antibody, V domains shown)
VH: QVQLVESGAEVKKPGASVKVSCKASGYTFTSYGISWVRQAPGQGLEWMGWVSAYTGNTNYAQKFQGRVTMTTDTSTSTAYMELRGLRSDDTAVYYCARDRGYYDAFDIWGQGTLVTVSS
VL: DIQMTQSPSTLSASIGDRVTITCRASEGIYHWLAWYQQKPGKAPKLLIYKASSLASGAPSRFSGSGFGTDFTLTISSLQPDDFATYYCQQMGEYNATIGGGTKLEIKR
B4: 375G06 IgG (non-germlined) (antibody, V domains shown)
VH: B1 VH with F103Y, P105Y, F106Y, I108R
VL: QSVLTQPPSMSVAPGKTATITCGGNNFRNKRVHWYQQRPGQAPVLVIYYDSDRPSGIPERFSGSRSGNTATLTISRVEAGDEADFYCQVWDFLADEAMFGGGTKLTVL
notes: IgG
B5: 376B10 IgG (non-germlined) (antibody, V domains shown)
VH: B1 VH with R85G, F103Y, P105Q, F106Y, D107T, I108A
VL: B1 VL with Q88S, V89T, W90F, L92P, N94T, N96R, G97P, V98L
notes: IgG
B6: 367D04 IgG (non-germlined) (antibody, V domains shown)
VH: EVQLVESGGGVVRPGGSLRLSCAASGFTFDDYGMNWVRQAPGKGLEWVSGVNWNGGTRDYAASVKGRFTISRDNAKNSLYLQMNSLRAEDTALYYCARGWYSGSPWSLGHWGRGTLVTVSS
VL: QAVLTQPSSVSGSPGQSVTISCTGASGDVGAYNFVSWYQQHPGKTPKLIIYDVNKRPSGVSNRFSGSKSGNTASLTISRLQAEDESDYYCSSYTSRYTTEFGGGTKVTVLG
notes: IgG
B7: 062A09 (antibody, V domains shown)
VH: B3 VH with E6Q, G85S
VL: B3 VL with I15V, A58V, F67S, D70E, I98F, L104V
notes: The list MOLECULES holds only the non-germlined 062A09 IgG; also called 062A09 germlined IgG

What follows are binders tested against T1, human IL-22 (assay: cell-based or functional assay).

| Binder | IC50 (pM) of non-germlined IgG in BaF3-IL-22R proliferation assay [pM] |
| --- | --- |
| B1 | 109 |
| B2 | 366 |
| B3 | 108 |

Each binder was assayed against T2, IL-26 (assay: ELISA: plate coated with 1 µg/ml human IL-26, IgG at 1 µg/ml, HRP anti-human IgG, A450).
Method: (§1) Cross species reactivity of germlined and non-germlined optimized antibodies were determined as follows: ELISA plates (Costar, Cat. #3590) were coated overnight with 1 μg/ml of rat, mouse, or human IL-22 or human IL-26 in PBS buffer. Plates were washed with PBST buffer (0.05% Tween20 in PBS) 3 times, then blocked with 1% BSA (Sigma A8918)/PBST for 1 hr at RT. Antibodies were added at 1 μg/ml, incubated 1 hr at 25° C. […] The plates were incubated for 1 hour at 25° C., then washed with PBST, and developed with TMB (KPL, Cat. #50-76-04). Reaction was stopped with 0.18 M H₂S0₄. Plates were read at OD 450 nm.

| Binder | binding result |
| --- | --- |
| B4 | no binding (tested: 1 µg/ml (single concentration)) |
| B5 | no binding (tested: 1 µg/ml (single concentration)) |
| B6 | no binding (tested: 1 µg/ml (single concentration)) |
| B7 | no binding (tested: 1 µg/ml (single concentration)) |

Each binder was assayed against T3, BSA (bovine, UniProt P02769) (assay: ELISA: wells labelled BSA, IgG at 1 µg/ml, HRP anti-human IgG, A450).
T3 construct: background wells labelled BSA; also called bovine serum albumin
Method: as §1

T3 sequence (P02769 25-607 limits assumed): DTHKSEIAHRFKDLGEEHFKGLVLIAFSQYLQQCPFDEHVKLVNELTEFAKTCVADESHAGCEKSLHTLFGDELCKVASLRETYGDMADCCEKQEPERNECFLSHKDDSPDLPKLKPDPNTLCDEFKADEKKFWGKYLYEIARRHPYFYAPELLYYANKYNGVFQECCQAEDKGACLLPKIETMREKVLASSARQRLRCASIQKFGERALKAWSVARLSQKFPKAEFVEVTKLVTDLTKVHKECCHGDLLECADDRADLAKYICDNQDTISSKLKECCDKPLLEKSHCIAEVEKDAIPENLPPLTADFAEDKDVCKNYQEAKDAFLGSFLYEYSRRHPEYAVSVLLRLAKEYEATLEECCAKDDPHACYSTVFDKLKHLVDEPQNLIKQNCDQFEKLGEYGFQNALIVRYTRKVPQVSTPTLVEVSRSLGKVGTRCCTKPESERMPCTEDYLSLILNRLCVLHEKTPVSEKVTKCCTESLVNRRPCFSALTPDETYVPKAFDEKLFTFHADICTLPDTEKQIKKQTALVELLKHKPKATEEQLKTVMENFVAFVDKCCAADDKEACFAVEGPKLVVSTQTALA

| Binder | binding result |
| --- | --- |
| B4 | no binding (tested: 1 µg/ml (single concentration)) |
| B5 | no binding (tested: 1 µg/ml (single concentration)) |
| B6 | no binding (tested: 1 µg/ml (single concentration)) |
| B7 | no binding (tested: 1 µg/ml (single concentration)) |

Target: T1, human IL-22
Assay: cell-based or functional assay
Remark: another data set of the same source

| Binder | IC50 of IgG in BaF3-IL-22 proliferation assay [nM] |
| --- | --- |
| B1 | 0.071 |
| B4 | 0.1 |
| B2 | 0.097 |
| B5 | 0.119 |
| B6 | 0.126 |
| B3 | 0.083 |
